Measured values taken from patent US20160272683A1 (Novo Nordisk, published 2016).
One block for each binder: values may come before it. Numbered stars: 1 amine (or outer) side, 2 acyl side, 3 side chain; on linkers, the order of the positions; unused ones are H or OH. Side chains are listed from the residue outwards. * marks the point of attachment. C20 diacid = O=C(O)CCCCCCCCCCCCCCCCCCC(=O)*; C18 diacid = O=C(O)CCCCCCCCCCCCCCCCC(=O)*; γGlu = O=C(O)[C@H](CCC(=O)[*:2])N[*:1]; C12 diacid = O=C(O)CCCCCCCCCCC(=O)*; Palmitoyl = CCCCCCCCCCCCCCCC(=O)*

Experiments:
[1] = target: T1, human amylin 3(a) receptor (human calcitonin receptor co-expressed with RAMP-3) (human, UniProt P30988 25-474; O60896 24-148, limits assumed); assay: cell-based or functional assay
T1 sequence (looked up) 1: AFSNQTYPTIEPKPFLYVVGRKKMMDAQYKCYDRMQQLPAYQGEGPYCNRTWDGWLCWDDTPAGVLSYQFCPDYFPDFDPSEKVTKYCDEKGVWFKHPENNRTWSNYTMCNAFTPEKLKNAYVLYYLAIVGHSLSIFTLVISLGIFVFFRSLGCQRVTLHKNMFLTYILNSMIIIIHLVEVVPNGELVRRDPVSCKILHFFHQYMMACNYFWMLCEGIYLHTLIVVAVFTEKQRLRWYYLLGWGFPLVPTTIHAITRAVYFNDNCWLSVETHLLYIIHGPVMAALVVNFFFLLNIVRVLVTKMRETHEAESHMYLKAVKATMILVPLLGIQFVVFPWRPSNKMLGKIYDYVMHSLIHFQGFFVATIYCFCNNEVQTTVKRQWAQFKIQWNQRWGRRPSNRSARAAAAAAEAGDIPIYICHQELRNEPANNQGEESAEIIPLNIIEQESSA
T1 sequence (looked up) 2: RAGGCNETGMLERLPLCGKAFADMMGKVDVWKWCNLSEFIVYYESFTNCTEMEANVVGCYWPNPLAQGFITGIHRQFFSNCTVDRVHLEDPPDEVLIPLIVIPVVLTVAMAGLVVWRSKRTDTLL

[2] = target: T2, human calcitonin receptor (human, UniProt P30988 25-474); assay: cell-based or functional assay
T2 sequence (looked up): T1 sequence (looked up) 1

Binder: Palmitoyl-EASELSTAALGRLSAELHELATLPRTETGPESP-NH2 [[N-terminal(C16)]mimylin]
hAmylin-R funct. EC50 (pM) [1]: 10 pM | hCTR funct. EC50 (pM) [2]: 13 pM

B4: [N-terminal(C18 diacid-gGlu), des1, 30S, 31G, 32P]mimylin (peptide)
peptide: {C18 diacid-γGlu}-ASELSTAALGRLSAELHELATLPRTETGSGPP-NH2
SMILES: CC(C)C[C@H](NC(=O)[C@H](C)NC(=O)[C@H](C)NC(=O)[C@@H](NC(=O)[C@H](CO)NC(=O)[C@H](CC(C)C)NC(=O)[C@H](CCC(=O)O)NC(=O)[C@H](CO)NC(=O)[C@H](C)NC(=O)CC[C@H](NC(=O)CCCCCCCCCCCCCCCCC(=O)O)C(=O)O)[C@@H](C)O)C(=O)NCC(=O)N[C@@H](CCCNC(=N)N)C(=O)N[C@@H](CC(C)C)C(=O)N[C@@H](CO)C(=O)N[C@@H](C)C(=O)N[C@@H](CCC(=O)O)C(=O)N[C@@H](CC(C)C)C(=O)N[C@@H](Cc1c[nH]cn1)C(=O)N[C@@H](CCC(=O)O)C(=O)N[C@@H](CC(C)C)C(=O)N[C@@H](C)C(=O)N[C@H](C(=O)N[C@@H](CC(C)C)C(=O)N1CCC[C@H]1C(=O)N[C@@H](CCCNC(=N)N)C(=O)N[C@H](C(=O)N[C@@H](CCC(=O)O)C(=O)N[C@H](C(=O)NCC(=O)N[C@@H](CO)C(=O)NCC(=O)N1CCC[C@H]1C(=O)N1CCC[C@H]1C(N)=O)[C@@H](C)O)[C@@H](C)O)[C@@H](C)O
hAmylin-R funct. EC50 (pM) [1]: 80 pM | hCTR funct. EC50 (pM) [2]: 19 pM

B5: [N-terminal(C20 diacid-gGlu), des1, 15E, 30S, 31G]mimylin (peptide)
peptide: {C20 diacid-γGlu}-ASELSTAALGRLSEELHELATLPRTETGSGSP-NH2
SMILES: CC(C)C[C@H](NC(=O)[C@H](C)NC(=O)[C@H](C)NC(=O)[C@@H](NC(=O)[C@H](CO)NC(=O)[C@H](CC(C)C)NC(=O)[C@H](CCC(=O)O)NC(=O)[C@H](CO)NC(=O)[C@H](C)NC(=O)CC[C@H](NC(=O)CCCCCCCCCCCCCCCCCCC(=O)O)C(=O)O)[C@@H](C)O)C(=O)NCC(=O)N[C@@H](CCCNC(=N)N)C(=O)N[C@@H](CC(C)C)C(=O)N[C@@H](CO)C(=O)N[C@@H](CCC(=O)O)C(=O)N[C@@H](CCC(=O)O)C(=O)N[C@@H](CC(C)C)C(=O)N[C@@H](Cc1c[nH]cn1)C(=O)N[C@@H](CCC(=O)O)C(=O)N[C@@H](CC(C)C)C(=O)N[C@@H](C)C(=O)N[C@H](C(=O)N[C@@H](CC(C)C)C(=O)N1CCC[C@H]1C(=O)N[C@@H](CCCNC(=N)N)C(=O)N[C@H](C(=O)N[C@@H](CCC(=O)O)C(=O)N[C@H](C(=O)NCC(=O)N[C@@H](CO)C(=O)NCC(=O)N[C@@H](CO)C(=O)N1CCC[C@H]1C(N)=O)[C@@H](C)O)[C@@H](C)O)[C@@H](C)O
hAmylin-R funct. EC50 (pM) [1]: 41 pM | hCTR funct. EC50 (pM) [2]: 25 pM

Binder: {C20 diacid-γGlu}-ASELSTAALGHLSAELHELATLPRTETGSGSP-NH2 [[N-terminal(C20 diacid-gGlu), des1, 12H, 30S, 31G]mimylin]
hAmylin-R funct. EC50 (pM) [1]: 17 pM | hCTR funct. EC50 (pM) [2]: 12 pM

Binder: {C12 diacid}-EASELSTAALGRLSAELHELATLPRTETGPESP-NH2 [[N-terminal(C12 diacid)]mimylin]
hAmylin-R funct. EC50 (pM) [1]: 23 pM | hCTR funct. EC50 (pM) [2]: 8 pM

Second part, the binder after the results:

hAmylin-R funct. EC50 (pM) [1]: 27 pM | hCTR funct. EC50 (pM) [2]: 18 pM
B1: [N-terminal(C20 diacid-gGlu), des1, 25H, 30S, 31G]mimylin (peptide)
peptide: {C20 diacid-γGlu}-ASELSTAALGRLSAELHELATLPHTETGSGSP-NH2
SMILES: CC(C)C[C@H](NC(=O)[C@H](C)NC(=O)[C@H](C)NC(=O)[C@@H](NC(=O)[C@H](CO)NC(=O)[C@H](CC(C)C)NC(=O)[C@H](CCC(=O)O)NC(=O)[C@H](CO)NC(=O)[C@H](C)NC(=O)CC[C@H](NC(=O)CCCCCCCCCCCCCCCCCCC(=O)O)C(=O)O)[C@@H](C)O)C(=O)NCC(=O)N[C@@H](CCCNC(=N)N)C(=O)N[C@@H](CC(C)C)C(=O)N[C@@H](CO)C(=O)N[C@@H](C)C(=O)N[C@@H](CCC(=O)O)C(=O)N[C@@H](CC(C)C)C(=O)N[C@@H](Cc1c[nH]cn1)C(=O)N[C@@H](CCC(=O)O)C(=O)N[C@@H](CC(C)C)C(=O)N[C@@H](C)C(=O)N[C@H](C(=O)N[C@@H](CC(C)C)C(=O)N1CCC[C@H]1C(=O)N[C@@H](Cc1c[nH]cn1)C(=O)N[C@H](C(=O)N[C@@H](CCC(=O)O)C(=O)N[C@H](C(=O)NCC(=O)N[C@@H](CO)C(=O)NCC(=O)N[C@@H](CO)C(=O)N1CCC[C@H]1C(N)=O)[C@@H](C)O)[C@@H](C)O)[C@@H](C)O

hAmylin-R funct. EC50 (pM) [1]: 36 pM | hCTR funct. EC50 (pM) [2]: 27 pM
Binder: Ac-ASK([γGlu-C20 diacid])LSTAALGRLSAELHELATLPRTETGSGSP-NH2 [[N-terminal(acetyl), des1, 4K(C20 diacid-gGlu), 30S, 31G]mimylin]

hAmylin-R funct. EC50 (pM) [1]: 67 pM | hCTR funct. EC50 (pM) [2]: 40 pM
B2: [N-terminal(C20 diacid-gGlu), des1, 30S, 31G, 33A]mimylin (peptide)
peptide: {C20 diacid-γGlu}-ASELSTAALGRLSAELHELATLPRTETGSGSA-NH2
SMILES: CC(C)C[C@H](NC(=O)[C@H](C)NC(=O)[C@H](C)NC(=O)[C@@H](NC(=O)[C@H](CO)NC(=O)[C@H](CC(C)C)NC(=O)[C@H](CCC(=O)O)NC(=O)[C@H](CO)NC(=O)[C@H](C)NC(=O)CC[C@H](NC(=O)CCCCCCCCCCCCCCCCCCC(=O)O)C(=O)O)[C@@H](C)O)C(=O)NCC(=O)N[C@@H](CCCNC(=N)N)C(=O)N[C@@H](CC(C)C)C(=O)N[C@@H](CO)C(=O)N[C@@H](C)C(=O)N[C@@H](CCC(=O)O)C(=O)N[C@@H](CC(C)C)C(=O)N[C@@H](Cc1c[nH]cn1)C(=O)N[C@@H](CCC(=O)O)C(=O)N[C@@H](CC(C)C)C(=O)N[C@@H](C)C(=O)N[C@H](C(=O)N[C@@H](CC(C)C)C(=O)N1CCC[C@H]1C(=O)N[C@@H](CCCNC(=N)N)C(=O)N[C@H](C(=O)N[C@@H](CCC(=O)O)C(=O)N[C@H](C(=O)NCC(=O)N[C@@H](CO)C(=O)NCC(=O)N[C@@H](CO)C(=O)N[C@@H](C)C(N)=O)[C@@H](C)O)[C@@H](C)O)[C@@H](C)O

hAmylin-R funct. EC50 (pM) [1]: 50 pM | hCTR funct. EC50 (pM) [2]: 45 pM
B3: [N-terminal(C20 diacid-gGlu), des1, 30T, 31G, 32T]mimylin (peptide)
peptide: {C20 diacid-γGlu}-ASELSTAALGRLSAELHELATLPRTETGTGTP-NH2
SMILES: CC(C)C[C@H](NC(=O)[C@H](C)NC(=O)[C@H](C)NC(=O)[C@@H](NC(=O)[C@H](CO)NC(=O)[C@H](CC(C)C)NC(=O)[C@H](CCC(=O)O)NC(=O)[C@H](CO)NC(=O)[C@H](C)NC(=O)CC[C@H](NC(=O)CCCCCCCCCCCCCCCCCCC(=O)O)C(=O)O)[C@@H](C)O)C(=O)NCC(=O)N[C@@H](CCCNC(=N)N)C(=O)N[C@@H](CC(C)C)C(=O)N[C@@H](CO)C(=O)N[C@@H](C)C(=O)N[C@@H](CCC(=O)O)C(=O)N[C@@H](CC(C)C)C(=O)N[C@@H](Cc1c[nH]cn1)C(=O)N[C@@H](CCC(=O)O)C(=O)N[C@@H](CC(C)C)C(=O)N[C@@H](C)C(=O)N[C@H](C(=O)N[C@@H](CC(C)C)C(=O)N1CCC[C@H]1C(=O)N[C@@H](CCCNC(=N)N)C(=O)N[C@H](C(=O)N[C@@H](CCC(=O)O)C(=O)N[C@H](C(=O)NCC(=O)N[C@H](C(=O)NCC(=O)N[C@H](C(=O)N1CCC[C@H]1C(N)=O)[C@@H](C)O)[C@@H](C)O)[C@@H](C)O)[C@@H](C)O)[C@@H](C)O

hAmylin-R funct. EC50 (pM) [1]: 32 pM | hCTR funct. EC50 (pM) [2]: 19 pM
Binder: Ac-ASELSTAALGRLSAELHK([γGlu-C20 diacid])LATLPRTETGSGSP-NH2 [[N-terminal(acetyl), des1, 19K(C20 diacid-gGlu), 30S, 31G]mimylin]

hAmylin-R funct. EC50 (pM) [1]: 142 pM | hCTR funct. EC50 (pM) [2]: 66 pM
B6: [N-terminal(C20 diacid-gGlu), des1, 30S, 31G, 33G]mimylin (peptide)
peptide: {C20 diacid-γGlu}-ASELSTAALGRLSAELHELATLPRTETGSGSG-NH2
SMILES: CC(C)C[C@H](NC(=O)[C@H](C)NC(=O)[C@H](C)NC(=O)[C@@H](NC(=O)[C@H](CO)NC(=O)[C@H](CC(C)C)NC(=O)[C@H](CCC(=O)O)NC(=O)[C@H](CO)NC(=O)[C@H](C)NC(=O)CC[C@H](NC(=O)CCCCCCCCCCCCCCCCCCC(=O)O)C(=O)O)[C@@H](C)O)C(=O)NCC(=O)N[C@@H](CCCNC(=N)N)C(=O)N[C@@H](CC(C)C)C(=O)N[C@@H](CO)C(=O)N[C@@H](C)C(=O)N[C@@H](CCC(=O)O)C(=O)N[C@@H](CC(C)C)C(=O)N[C@@H](Cc1c[nH]cn1)C(=O)N[C@@H](CCC(=O)O)C(=O)N[C@@H](CC(C)C)C(=O)N[C@@H](C)C(=O)N[C@H](C(=O)N[C@@H](CC(C)C)C(=O)N1CCC[C@H]1C(=O)N[C@@H](CCCNC(=N)N)C(=O)N[C@H](C(=O)N[C@@H](CCC(=O)O)C(=O)N[C@H](C(=O)NCC(=O)N[C@@H](CO)C(=O)NCC(=O)N[C@@H](CO)C(=O)NCC(N)=O)[C@@H](C)O)[C@@H](C)O)[C@@H](C)O

hAmylin-R funct. EC50 (pM) [1]: 21 pM | hCTR funct. EC50 (pM) [2]: 28 pM
Binder: Ac-ASELSTAALGRLSAK([γGlu-C20 diacid])LHELATLPRTETGSGSP-NH2 [[N-terminal(acetyl), des1, 16K(C20 diacid-gGlu), 30S, 31G]mimylin]
